Results published in patent publication US20070248589A1 (GOVERNMENT OF THE UNITED STATES OF AMERICA AS REPRESENTED …, published 2007).

T1: GST-SPATIAL(L) (Mus musculus, UniProt Q7TSD4)
T1 construct: made in house
T1 sequence (Q7TSD4 with tags, fused parts or gaps isoform Q7TSD4-6 limits assumed): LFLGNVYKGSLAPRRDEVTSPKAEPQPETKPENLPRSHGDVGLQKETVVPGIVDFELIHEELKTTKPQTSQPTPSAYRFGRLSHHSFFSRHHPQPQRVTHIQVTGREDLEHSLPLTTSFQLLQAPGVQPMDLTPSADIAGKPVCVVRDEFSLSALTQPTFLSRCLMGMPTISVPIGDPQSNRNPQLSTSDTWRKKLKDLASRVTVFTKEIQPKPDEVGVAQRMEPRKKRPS

T2: GST-SPATIAL(S) (Mus musculus, UniProt Q7TSD4)
T2 construct: made in house
T2 sequence (Q7TSD4 with tags, fused parts or gaps isoform Q7TSD4-7 limits assumed): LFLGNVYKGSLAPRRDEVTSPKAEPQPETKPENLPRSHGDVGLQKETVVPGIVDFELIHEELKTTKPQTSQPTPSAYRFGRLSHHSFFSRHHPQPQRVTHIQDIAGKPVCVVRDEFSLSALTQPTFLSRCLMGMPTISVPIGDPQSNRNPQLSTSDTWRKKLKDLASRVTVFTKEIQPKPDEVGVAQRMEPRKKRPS


Tests used:
[1] = tested on: lymphoid cells; assay: Thymocyte depletion of fetal thymic organ culture (FTOC); format: cell-based, mouse; conditions: after 14 days, flow cytometric analysis
Description: SPATIAL expression cannot be detected in thymocytes using RT-PCR on RNA obtained from highly purified CD45+ thymocytes prepared by flow cytometer sorting from normal mice. Actin and cyclophilin mRNA was readily detected using the same RNA samples. To examine SPATIAL expression in stromal cells, thymii from day 14 mouse fetuses were harvested and cultured in fetal thymic organ culture (FTOC). The FTOC was specifically depleted of thymocytes using 2-deoxyguanosine treatment 2-deoxyguanosine is a nucleotide analog that is toxic to thymocytes. […] These cultures can be re-colonized by stem cells and are fully capable of supporting thymopoiesis (Hare et al., Semin. Immunol., 11(1):3-12, 1999). Using RT-PCR, it was shown that SPATIAL is abundantly expressed in thymic stromal cells obtained from FTOC (Flomerfelt et al., Genes and Immunity, 1:391-401, 2000).

[2] = tested on: Hb12 cells; assay: Bcl-2 expression assay, SPATIAL-EGFP transfected Bcl-2 expressing thymocyte cell line; format: cell-based, mouse; conditions: Bcl-2 expression, FIG. 17B
Description: The mouse thymocyte cell line Wehi 7.2 and its variant Wbcl-2, which over expresses bcl-2, were maintained in DMEM supplemented with 10% heat-inactivated FBS, 2 mM glutamine, 100 U/ml penicillin, and 0.1 mg/ml streptomycin. Cells were grown at 37° C. in a humidified atmosphere with 5% CO2.
Transient transfections were performed using either lipids (Lipofectamine 2000 or FreeStyle 293 Expression System, each supplied by Invitrogen, Rockville, Md.) or calcium phosphate (Mammalian Transfection Kit; Stratagene, La Jolla, Calif.) or electroporation. Manufacturer instructions were followed for lipid and calcium phosphate transfections. For electroporation, the following procedure was used: Before transfection, Wehi cell and Wbcl-2 cells were counted and suspended in fresh complete DMEM without antibiotics at 5×10^5 cells/ml in a 15 cm dish. On the day of transfection, the cells were washed with PBS twice and were suspended in serum free DMEM at 6.25×10^6 cells/mL Aliquots of 800 μl cell suspension were transferred to a 4 mm electroporation cuvette and 10 μg of plasmid DNA solution was added. After 10 minutes incubation on ice, the cells were electroporated under the condition of 310 V, 725 ohms resistance, and 1050 μF capacitance. The transfected cells were incubated on ice for 10 minutes and suspended in complete DMEM in 10 cm dishes at the density of 7.5×10^4 viable cells/ml. […]

[3] = target: T1, GST-SPATIAL(L); assay: GST pulldown assay with GST-SPATIAL long isoform; format: binding; conditions: 35S-methionine labeled in vitro translated protein
Description: (§1) Eighteen cDNA clones identified in the yeast two-hybrid system were tested in an in vitro glutathione-S-transferase (GST) pulldown assay, as described in Ausubel et al., Current Protocols in Molecular Biology, Greene Publishing Associates, updated November 2003, Chapter 20, Analysis of Protein Interactions, Unit 20.2, Affinity Purification of Proteins Binding to GST Fusion Proteins.
(§2) Briefly, a GST-SPATIAL fusion construct was produced by cloning SPATIAL cDNA(s) into pGEx5X1 expression vector using standard molecular cloning techniques. GST or GST-SPATIAL fusion protein were expressed in 1-1000 ml bacterial cultures grown for 3-4 hours until OD600 reached 0.5. Then, plasmid expression was induced for 1.5-4 hours by the addition of ITPG to a final concentration of 0.11 mM. GST or GST-fusion proteins were purified using glutathione-Sepharose beads as described in Ausubel et al., Current Protocols in Molecular Biology, Greene Publishing Associates, updated November 2003, Chapter 20, Analysis of Protein Interactions, Unit 20.2, Affinity Purification of Proteins Binding to GST Fusion Proteins.
(§3) A coupled in vitro transcription and translation system (Promega) was used according to the manufacturer's instructions to produce radiolabeled protein from cDNAs to be tested. Radiolabeled proteins were mixed with either purified GST or GST-SPATIAL. Then, GST-containing protein complexes were purified by centrifugation from the reaction mixtures using glutathione-coated Sepharose beads. Bound proteins were eluted from the beads with SDS-PAGE loading buffer heated to 72-85° C., separated on polyacrylamide gels, and visualized by autoradiography. Specific interactions between GST-SPATIAL and in vitro translated proteins were indicated by the presence of a radiolabeled in vitro translated protein in the GST-SPATIAL-containing samples, but not in the GST-alone samples.
(§4) GST pulldown assays were performed as described in Example 9 using GST-SPATIAL(L) and GST-SPATIAL(S) and each of the Uba3 mutants described in this example.

[4] = target: T2, GST-SPATIAL(S); assay: GST pulldown assay with GST-SPATIAL short isoform; format: binding; conditions: 35S-methionine labeled in vitro translated protein
Description: as §1, §2, §3, §4

[5] = target: T3, Uba3 deletion mutant Delta364-912 (mouse, UniProt Q8C878 22-462, 35S-methionine labeled); assay: GST pulldown of 35S-labelled in vitro translated Uba3 mutant
T3 construct: Amino acids 109-291 are deleted (PstI fragment removed); also called PstI digest
Description: as §3, §4

Molecule	interaction with GST-SPATIAL(L) [3]	interaction with GST-SPATIAL(S) [4]	further results
Nc1nc2c(ncn2[C@H]2C[C@H](O)[C@@H](CO)O2)c(=O)[nH]1 [2-deoxyguanosine]			lymphoid cells depleted [1]: greater than 98%
Bcl-2: human Bcl-2 gene expressed in Hb12 cells, inhibits apoptosis			reversal of growth suppressive effect of SPATIAL-EGFP transfection [2]: ineffective to reverse the growth suppressive effect
Delta364-912: Uba3 deletion mutant, amino acid deletion 109-291 (PstI digest)	does not interact	does not interact	
GST-SPATIAL long isoform fusion protein (other, SPATIAL cDNA cloned into pGEx5X1, expressed in bacteria and held on glutathione-Sepharose beads; not shown: glutathione-S-transferase (GST) encoded by the pGEx5X1 expression vector) LFLGNVYKGSLAPRRDEVTSPKAEPQPETKPENLPRSHGDVGLQKETVVPGIVDFELIHEELKTTKPQTSQPTPSAYRFGRLSHHSFFSRHHPQPQRVTHIQVTGREDLEHSLPLTTSFQLLQAPGVQPMDLTPSADIAGKPVCVVRDEFSLSALTQPTFLSRCLMGMPTISVPIGDPQSNRNPQLSTSDTWRKKLKDLASRVTVFTKEIQPKPDEVGVAQRMEPRKKRPS			binding result [5]: no binding
GST-SPATIAL short isoform fusion protein (other, SPATIAL cDNA cloned into pGEx5X1, expressed in bacteria and held on glutathione-Sepharose beads; not shown: glutathione-S-transferase (GST) encoded by the pGEx5X1 expression vector) LFLGNVYKGSLAPRRDEVTSPKAEPQPETKPENLPRSHGDVGLQKETVVPGIVDFELIHEELKTTKPQTSQPTPSAYRFGRLSHHSFFSRHHPQPQRVTHIQDIAGKPVCVVRDEFSLSALTQPTFLSRCLMGMPTISVPIGDPQSNRNPQLSTSDTWRKKLKDLASRVTVFTKEIQPKPDEVGVAQRMEPRKKRPS			binding result [5]: no binding
Delta941-1365: Uba3 deletion mutant, amino acid deletion 301-441 (protein) MAVDGGCGDTGDWEGRWNHVKKFLERSGPFTHPDFEPSTESLQFLLDTCKVLVIGAGGLGCELLKNLALSGFRQIHVIDMDTIDVSNLNRQFLFRPKDVGRPKAEVAAEFLNDRVPNCNVVPHFNKIQDFNDTFYRQFHIIVCGLDSIIARRWINGMLISLLNYEDGVLDPSSIVPLIDGGTEGFKGNARVILPGMTACIECTLELYPPQVNFPMCTIASMPRLPEHCIEYVRMLQWPKEQPFGDGVPLDGDDPEHIQWIFQKSIERASQYNIRGVTYRLTQGVVKRIIPAVASTNAVIA	interact	interact	
Delta24-646: Uba3 deletion mutant, amino acid deletion 1-202 (protein) TLELYPPQVNFPMCTIASMPRLPEHCIEYVRMLQWPKEQPFGDGVPLDGDDPEHIQWIFQKSIERASQYNIRGVTYRLTQGVVKRIIPAVASTNAVIAAVCATEVFKIATSAYIPLNNYLVFNDVDGLYTYTFEAERKENCPACSQLPQNIQFSPSAKLQEVLDYLTNSASLQMKSPAITATLEGKNRTLYLQSVTSIEERTRPNLSKTLKELGLVDGQELAVADVTTPQTVLFKLHFT	interact	interact	
